± gives the standard deviation of the averaged measurements.
Test: total protein half-life in vivo (active degradation + dilution); higher = more stable protein
[1] = E. coli NCM3722 delta-clpP delta-lon delta-hslV, growth: N-lim chemostat, doubling time 6 h
[2] = E. coli NCM3722 delta-clpP, growth: N-lim chemostat, doubling time 6 h
[3] = E. coli NCM3722 delta-hslV, growth: N-lim chemostat, doubling time 6 h
[4] = E. coli NCM3722 delta-smpB, growth: N-lim chemostat, doubling time 6 h
[5] = wild type E. coli NCM3722, growth: C-lim chemostat, doubling time 3 h
[6] = wild type E. coli NCM3722, growth: C-lim chemostat, doubling time 6 h
[7] = wild type E. coli NCM3722, growth: C-lim chemostat, doubling time 12 h
[8] = wild type E. coli NCM3722, growth: N-lim chemostat, doubling time 6 h
[9] = wild type E. coli NCM3722, growth: N-lim chemostat, doubling time 12 h
[10] = wild type E. coli NCM3722, growth: P-lim chemostat, doubling time 6 h
[11] = E. coli NCM3722 delta-lon, growth: N-lim chemostat, doubling time 6 h
[12] = wild type E. coli NCM3722, growth: P-lim chemostat, doubling time 12 h

Sequence	total protein half-life in vivo [1]	total protein half-life in vivo [2]	total protein half-life in vivo [3]	total protein half-life in vivo [4]	total protein half-life in vivo [5]	total protein half-life in vivo [6]	total protein half-life in vivo [7]	total protein half-life in vivo [8]	total protein half-life in vivo [9]	total protein half-life in vivo [10]	total protein half-life in vivo [11]	total protein half-life in vivo [12]
MSVSAFNRRWAAVILEALTRHGVRHICIAPGSRSTPLTLAAAENSAFIHHTHFDERGLGHLALGLAKVSKQPVAVIVTSGTAVANLYPALIEAGLTGEKLILLTADRPPELIDCGANQAIRQPGMFASHPTHSISLPRPTQDIPARWLVSTIDHALGTLHAGGVHINCPFAEPLYGEMDDTGLSWQQRLGDWWQDDKPWLREAPRLESEKQRDWFFWRQKRGVVVAGRMSAEEGKKVALWAQTLGWPLIGDVLSQTGQPLPCADLWLGNAKATSELQQAQIVVQLGSSLTGKRLLQWQASCEPEEYWIVDDIEGRLDPAHHRGRRLIANIADWLELHPAEKRQPWCVEIPRLAEQAMQAVIARRDAFGEAQLAHRICDYLPEQGQLFVGNSLVVRLIDALSQLPAGYPVYSNRGASGIDGLLSTAAGVQRASGKPTLAIVGDLSALYDLNALALLRQVSAPLVLIVVNNNGGQIFSLLPTPQSERERFYLMPQNVHFEHAAAMFELKYHRPQNWQELETAFADAWRTPTTTVIEMVVNDTDGAQTLQQLLAQVSHL	6.1 ± 0.64 h	5.37 ± 0.1 h	5.38 ± 0.24 h	5.01 ± 0.12 h	3.27 ± 0.59 h	6.66 ± 0.06 h	12.2 ± 1.8 h	5.89 ± 0.76 h	12.3 ± 1.8 h	6.81 ± 0.65 h		
MQDEYYMARALKLAQRGRFTTHPNPNVGCVIVKDGEIVGEGYHQRAGEPHAEVHALRMAGEKAKGATAYVTLEPCSHHGRTPPCCDALIAAGVARVVASMQDPNPQVAGRGLYRLQQAGIDVSHGLMMSEAEQLNKGFLKRMRTGFPYIQLKLGASLDGRTAMASGESQWITSPQARRDVQLLRAQSHAILTSSATVLADDPALTVRWSELDEQTQALYPQQNLRQPIRIVIDSQNRVTPVHRIVQQPGETWFARTQEDSREWPETVRTLLIPEHKGHLDLVVLMMQLGKQQINSIWVEAGPTLAGALLQAGLVDELIVYIAPKLLGSDARGLCTLPGLEKLADAPQFKFKEIRHVGPDVCLHLVGA	5.45 ± 0.12 h	4.76 ± 0.62 h	5.07 ± 0.25 h	4.57 ± 0.21 h	2.9 ± 0.13 h	6.76 ± 0.081 h	10.1 ± 0.38 h	4.98 ± 0.35 h	8.77 ± 0.11 h	5.904 ± 0.027 h	5.1 ± 0.31 h	11.7 ± 0.15 h
MEYRSLTLDDFLSRFQLLRPQINRETLNHRQAAVLIPIVRRPQPGLLLTQRSIHLRKHAGQVAFPGGAVDDTDASAIAAALREAEEEVAIPPSAVEVIGVLPPVDSVTGYQVTPVVGIIPPDLPYRASEDEVSAVFEMPLAQALHLGRYHPLDIYRRGDSHRVWLSWYEQYFVWGMTAGIIRELALQIGVKP	5.44 ± 0.41 h	2.96 ± 0.13 h	3.99 ± 0.25 h	3.01 ± 0.22 h	2.36 ± 0.8 h	5.03 ± 0.89 h	7.74 ± 0.73 h	4 ± 0.21 h	6.98 ± 0.38 h	4.45 ± 0.2 h	4.38 ± 0.51 h	8.18 ± 0.56 h
MTQKIEQSQRQERVAAWNRRAECDLAAFQNSPKQTYQAEKARDRKLCANLEEAIRRSGLQDGMTVSFHHAFRGGDLTVNMVMDVIAKMGFKNLTLASSSLSDCHAPLVEHIRQGVVTRIYTSGLRGPLAEEISRGLLAEPVQIHSHGGRVHLVQSGELNIDVAFLGVPSCDEFGNANGYTGKACCGSLGYAIVDADNAKQVVMLTEELLPYPHNPASIEQDQVDLIVKVDRVGDAAKIGAGATRMTTNPRELLIARSAADVIVNSGYFKEGFSMQTGTGGASLAVTRFLEDKMRSRDIRADFALGGITATMVDLHEKGLIRKLLDVQSFDSHAAQSLARNPNHIEISANQYANWGSKGASVDRLDVVVLSALEIDTQFNVNVLTGSDGVLRGASGGHCDTAIASALSIIVAPLVRGRIPTLVDNVLTCITPGSSVDILVTDHGIAVNPARPELAERLQEAGIKVVSIEWLRERARLLTGEPQPIEFTDRVVAVVRYRDGSVIDVVHQVKE							> 16 h					
MSAFKKSLLVAGVAMILSNNVFADEGHGIVKFKGEVISAPCSIKPGDEDLTVNLGEVADTVLKSDQKSLAEPFTIHLQDCMLSQGGTTYSKAKVTFTTANTMTGQSDLLKNTKETEIGGATGVGVRILDSQSGEVTLGTPVVITFNNTNSYQELNFKARMESPSKDATPGNVYAQADYKIAYE	5.72 h	5.47 h	5.25 h	3.96 ± 0.24 h	1.78 h							
MGKEVMGKKENEMAQEKERPAGSQSLFRGLMLIEILSNYPNGCPLAHLSELAGLNKSTVHRLLQGLQSCGYVTTAPAAGSYRLTTKFIAVGQKALSSLNIIHIAAPHLEALNIATGETINFSSREDDHAILIYKLEPTTGMLRTRAYIGQHMPLYCSAMGKIYMAFGHPDYVKSYWESHQHEIQPLTRNTITELPAMFDELAHIRESGAAMDREENELGVSCIAVPVFDIHGRVPYAVSISLSTSRLKQVGEKNLLKPLRETAQAISNELGFTVRDDLGAIT	6.16 ± 0.066 h	6.38 ± 0.83 h	5.57 ± 0.36 h	5.29 ± 0.3 h	2.91 ± 0.036 h	6.07 ± 0.19 h	12.6 ± 1.2 h	5.86 ± 0.21 h	9.57 ± 0.79 h	6.38 ± 1.8 h	5.84 ± 0.19 h	11.2 ± 2.3 h
MELHCPQCQHVLDQDNGHARCRSCGEFIEMKALCPDCHQPLQVLKACGAVDYFCQHGHGLISKKRVEFVLA	5.52 ± 2.3 h	4.63 h					4.37 h	6.43 h	5.69 h			> 16 h
MADKELKFLVVDDFSTMRRIVRNLLKELGFNNVEEAEDGVDALNKLQAGGYGFVISDWNMPNMDGLELLKTIRADGAMSALPVLMVTAEAKKENIIAAAQAGASGYVVKPFTAATLEEKLNKIFEKLGM [P0AE67]	4.52 ± 0.43 h	4.01 h	3.69 ± 0.95 h	4.41 h	2.33 ± 0.22 h	4.08 ± 0.41 h	5.96 ± 0.14 h	3.82 ± 0.84 h	5.61 ± 0.14 h	3.91 h	5.08 ± 0.6 h	6.33 ± 0.44 h
MNQIDRLLTIMQRLRDPENGCPWDKEQTFATIAPYTLEETYEVLDAIAREDFDDLRGELGDLLFQVVFYAQMAQEEGRFDFNDICAAISDKLERRHPHVFADSSAENSSEVLARWEQIKTEERAQKAQHSALDDIPRSLPALMRAQKIQKRCANVGFDWTTLGPVVDKVYEEIDEVMYEARQAVVDQAKLEEEMGDLLFATVNLARHLGTKAEIALQKANEKFERRFREVERIVAARGLEMTGVDLETMEEVWQQVKRQEIDL [P0AEY3]	4.85 ± 0.48 h	4.1 ± 0.46 h	2.49 ± 0.062 h	2.49 ± 0.12 h	2.51 ± 0.056 h	5.06 ± 0.058 h	6.42 ± 0.2 h	2.624 ± 0.016 h	3.29 ± 0.12 h	3.61 ± 0.13 h	3.25 ± 0.4 h	6.14 ± 1.5 h

Reference: the supplement of paper PMC11246515
